Target: T1, 15-residue histone H3 trimethylated Lys9 (H3K9me3) substrate peptide, H2N-ARTKQTARK(tri-methyl)STGGKA-amide
T1 chain: ARTKQTARKSTGGKA

B1: catalytic domain, residues 1-350, of the human histone demethylase JMJD2A (protein)
chain: MASESETLNPSARIMTFYPTMEEFRNFSRYIAYIESQGAHRAGLAKVVPPKEWKPRASYDDIDDLVIPAPIQQLVTGQSGLFTQYNIQKKAMTVREFRKIANSDKYCTPRYSEFEELERKYWKNLTFNPPIYGADVNGTLYEKHVDEWNIGRLRTILDLVEKESGITIEGVNTPYLYFGMWKTSFAWHTEDMDLYSINYLHFGEPKSWYSVPPEHGKRLERLAKGFFPGSAQSCEAFLRHKMTLISPLMLKKYGIPFDKVTQEAGEFMITFPYGYHAGFNHGFNCAESTNFATRRWIEYGKQAVLCSCRKDMVKISMDVFVRKFQPERYKLWKAGKDNTVIDHTLPTPEA
fluorescence of the formaldehyde-Luminos reagent adduct (demethylase activity, positive control assay): 57,000±400 relative fluorescence units
fold reduction in the fluorescence signal when a component is omitted: Omission of 2-OG, the H3K9me3 peptide, or JMJD2A results in a ˜30-fold reduction in the fluorescence signal
signal to background ratio (positive control reactions against negative control assays): signal to background ratio of 20:1 or greater
